Results taken from the RNAGym collection of RNA variant scans (doi:10.1073/pnas.2313332121).

B1: TPR t1 (parent)
chain: GACCAAUCUGCCCUCAGAGCUCGAGAACAUCUUCGGAUGCAGAGGAGGCAGGCUUCGGUGGCGCGAUAGCGCCAACGUCCUCAACCUCCAAUGCAUCCCACCACAUGAUGAUGCCUGAAGAGCCUUGGUUUUUUG

Variants of: B1
Assay: polymerase ribozyme fitness, log enrichment relative to wild type (log ratio); higher = more active; in vitro selection for triplet polymerase activity
How it was run: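 Fitness is a logarithmic measure of how a genotype enriched relative to the wild type, with replicate averages weighted by inverse variance. The logarithm uses base 2, and enrichment came from Illumina sequencing of input and output libraries. Those libraries were PCR-built, transcribed mutants of each subunit of a heterodimeric triplet polymerase ribozyme, passed through one triplicate in vitro selection round that included frozen incubation at −7 °C, gel excision of extended constructs and streptavidin-bead capture. Genotypes were kept only if they had ≥10 input reads and ≥1 read per output.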

Variant | polymerase ribozyme fitness (log ratio)
GACCAAUCUGCCCUCAGAGCUCGAGAACAUCUUCGGAUGCAGAGAAGUCAGGGUUCGGUGGCGCGAUAGCGACAACGUCCUCAACCUCCAAUGCAUCCCACCACAUGAUGAUGCCUGAAGAGCCUUGGUUUUUUG [G45A G48U C53G C72A] | -0.719
GACCAAUCUGCCCUCAGAGCUCGAGAACAUCUUCGGAUGCAGAGGAGACAGGCUUCGGUGGCGCGAUAGCGCCAACGUCCUCAACGUCCAAUGCAUCCCACCACAUGAUGAUGCCUGCAGAGCCUUGGUUUUUUG [G48A C86G A118C] | -3.12
GACCAAUCUGCCCUCAGAGCUCGAGAACAUCUUCGGAUGCAGAGGAGGGAGGCUUCGGUGGCGCGAUAGCGCCAACGUCCUCAACCUCCAUUGCAUCCCACCACAUGAUGAUGCCUGAAGAGCCUUGGUUUUUUG [C49G A91U] | -2.92
GACCAAUCUGCCCUCAGAGCUCGAGAACAUCUUCGGAUGCAGAGGAGGCAGGCUUCGGUGGCUCGAUAGCGCCAACGUCCUCAACCUCCAAUGCAUCCCACCACAUGAUGAUGCCUGAAGAGCGUUGGUUUUUUG [G63U C124G] | 0.287
GACCAAUCUGCGCUCAGAGCCCGAGAACAUCUUCGGAUGCAGAGGAGGCAGGCUUCGGUGGCGCGAUAGCGCCAACGUCCUCAACCUCCAAUGCAUCCCAUCACUUGAUGAUGCCUGAAGAGCCUUGGUUUUUUG [C12G U21C C101U A105U] | -4.94
GACCAAUCUGGCCUCAGAGCUCGAGAACAUCUUCGGAUGCAGAGGAGGCAGGAUUCGGUGCCGCGAUAGCGCCAACGUCCUCAACCUCCAAUGCAUCCCACCACAUGAUGAUGCCUGAAGAGCCUUGGUUUUUUG [C11G C53A G61C] | -4.59
GACCAAUCUGCCCUCAGAGCUCGAGAACAUCUUCGGAUGCAGAGGAGGCAGGCUUCGGUGGCGCGAUAGCGCCAACGUGCUCAACCUCCAAUGCAUCCCACCACAUGAUAAUGCCUGAAGAGCCUUGGUUUUUUG [C79G G110A] | -3.53
GACCAAUCUGCCCUCAGAGCUCGAGAACAUCUUCGGAUGCAGAGGAGGCAGGCUUCGGUGGCGCGAUAGCGCCUACGUCCUCAACCUCCAAUGCAUCCCACCACAUGAUGAUGCCUGAAGAGCCUUGGUUUUUUG [A74U] | -0.247
GACCAAUCUGCCCUCAGUGCUCGAGAACAUCUUCGGAUGUAGAGGAGGCAGGCUUCGGUGGCGCGAUAGCGCCAACGUCCUCAACCUCCAAUGUAUCCCACCACAUGAUGAUGCCUGAAGAGCCUUGGUUUUUUG [A18U C40U C94U] | -3.46
GACCAACCUGCCCUCAGAGCUCGAGAACAUCUUCGGAUGCAGAGGAGGCAGGCUUCGGUGGCGCGAUAUCGCCAACGUCAUCUACCUCCAAUGCAUCCCACCACAUGAUGAUGCCUGAAGAGCCUUGCUUUUUUG [U7C G69U C80A A83U G128C] | -5.37
GACCAAUCUGCCCUCAGAGCUCGAGAACAUCUUCGGAUGCAGAGGAGGCAGGCUUCGGUGGCGCGAUAGCGCCAACGUCCUCAACCUCCAAUGCAUUCCACCACAUGAUGAUGCCCGAAGAGCCUUGGUUUUUUG [C97U U116C] | -0.713
GACCAAUCUGCCCUCAGAGCUCGAGAACAUCUUCGGAUGCAGAGGAGGCAGGCUUCGGUGGCGCGAUAGCGCCAACGUCCUCAACCUCCAAUGCAUCCCACCACAUGAUGAUGCCUGAAGAGCUUUGGUUUUUUU [C124U G135U] | -0.0615
GACCAAUCUGCCCUCAGAGCUCGAGAACAUCCUCGGAUGCAGAGGAGGGAGGCUUCGGUGGCGCGAUAGCGCGAACGUCCUCAACCUGCAAUGCCUCCCACCACAUGAUGAUGCCUGAAGAGCCUUGGUUUUUUG [U32C C49G C73G C88G A95C] | -5.8
GACCAAUCUGCCUUCAGAGCUCGAGAACAUCUUCGGAUGCAGAGGAGGCAGGCUUCGGUGGCCCGAUAGCGCCAACGUCCUCAACCUCCAAAGCAUCCCACCACAUGAUGAUGCCUGAAGAGCCUUGGUUUUUUG [C13U G63C U92A] | -3.34
GACCAUUCUGCCCUCAGAGCUCGAGAACAUCUUCGUAUGCAGAGGAGGCAGGCUUCGGUGGCGCGAUAGCACCAACGUCCUCAACCUCCAAUGCAUCCCACCACAUGAUGAUGCCUGAAGAUCAUUGGUUUUUUG [A6U G36U G71A G122U C124A] | -1.43
GACCAAUCUGCCCUCAGAGCUCGAGAACAUCUUCGGAUGCAGAGGAGGCAGGCUUCGAUGGCGCGAUAGCGUCAACGUCCUCAACCUCCAAUGCAUCCCACCACAUGAUGAUGCCUGAAGAGCCUUGGUUUUUUG [G58A C72U] | 0.786
GACCAAUCUGCCCUCAGAGUUCGAGAACCUCUUCGGAUGCAGAGGAGGCAGGCUUCGGUGGCGCGAUAGCGCCAACGUCCUCAACCUCCAAUGCAUCCCACCACAUGAUGAUGCCUGAAAAGCCUUGGUUUUUUG [C20U A29C G120A] | -3.64
GACCAAUCUGCCCUCAGAGCUCGAGAACAUCUUCGGAUGCAGAGGAGGCAGGCUUCGGUGGCGCGAUAGCGCCAACGUCCUCAACCUCCAAUGCACCCCACCACAUGAUGAUGCCUGAAGAGCCUUGGUUUUAUG [U96C U133A] | -0.456
GACCAAUCUGCCCUCAGAGCUCGAGAACAUCUUCGGAUGCAGAGGAGACAGGCUUCGGUGGCGCGAUAGCGCCAACGUCCUCAACCUCCAAUGCAUCCCAUCACAUGAUGAUGCCUCAAGAGCCUUGGCUUUUUG [G48A C101U G117C U129C] | -6.15
GACCAAUCUGCACUCAGAGCUCGAGAACAUCUUCGGAUGCAGAGGAGGCAGGCUUCGGUGGCGCGAUAGCGUCAACGUCCUCAACCUCCAAUGCAUCCCACCACAUGAUGAUCCCUGAAGAGCCUUGGUUUUUUG [C12A C72U G113C] | -4.5
GACCAAUCUGCCCUCAGAGCUCGAGAACAUCUUCGGAUGCUGAGGAGGCAAGCUUCCGUGGCGCGAUAGCGCCAACGUCCUAAACCUCCAAUGCAGCCCACCACAUGAUGAUGUCAGAAGAGCCUUGGUUUUUUG [A41U G51A G57C C82A U96G C114U U116A] | -7.09

Variant | polymerase ribozyme fitness (log ratio)
GACCAAUCUGCACUCAGAGCUCGAGAACAUCUUCGGAUGCAGAGGAGGCAGGCUUCGGUGGCGCGAUAGCUCCAACGUCCUCAACCUCUAAUGCAUCCCAUCACAUGAUGAUGCCUGAAGAGUCUUGCUUUUUUG [C12A G71U C89U C101U C123U G128C] | -1.52
GACCAAUCUGCCCUCAGAGUUCGAGAACAUCUUCGGAUGCAGAGGAGGCAGGCUUCGGUGGCGCGAUAGCGCCAACGUCCUCAACCUCCUAUACAUCCCACCACAUGAUGAUGCCUGAAGAGCCUUGGUUUUUUG [C20U A90U G93A] | -2.41
GACCAAUCUGCGCUCAGAGCCCGAGAACUUCUUCGGAUGCAGAGGAGGCAGGCUUCGGUGACGCGAUAGCGCCAACGUCCUCAACCUCCAAUGCAUCCCACCACAUGAUGAUGCCUGAAGAGUCUUGGUUAUUUG [C12G U21C A29U G61A C123U U131A] | -2.39
GACCAUUCUGCCCUCAGAGCUCGAGAACAUCUUCGGAUGCAGAGGAGGCAGGCUUCGGUGGCGCGAUAGAGCCAACGUCCUCAACCUCCAAUGCAUCCCACCACAUGAUGAUGCCUGAAGAGCAUUGGUUUUUUG [A6U C70A C124A] | 0.175
GACCAAUCUGCCCUCAGAGCUCGAGAACAUCUUCGGAUGCAGAGGAGGCAGGCUUCGGUGGCGCGAUACCGCCAACAUCCUCAACCUACAAUGCAUCCCACCACAUGAUGAUGCCUGAAGAGCCUUAGAUUUUUG [G69C G77A C88A G127A U129A] | -5.53
GACCAAUCUGCCCUCAGAGCUCGAGAAGAUCUUCGGAUGCAGAGGAGGCAGGCUUCGGUGGCGCGAUAGCGCCAACGUCCUCAACCUCCAAUGCUUCCCACCACAUGAUCCUGCCUGAAGAGCCUUGGUUUUAUG [C28G A95U G110C A111C U133A] | -1.6
GACCAAUCUGCCCUCAGAGCUCGAGAACAUCUUCGGAGGCAGAGGAGGCAGGCUUCGGUGGCGCGAUAGCGCCAACGUUCUCAACCUCCAAUGCAUUCCACCACAUGAUGAUGCCUGAAGAGCCUUGGUUUUUUG [U38G C79U C97U] | -5.59
GACCAAUCUGCCCUAAGAGCUCGAGAACAUCUUCGGAUGCAGAGGAUGCAGGCUUCGGUGGCGCGAUAGCGCCAACGUCUUCAACAUCCAAUGCAUCCCACCACAUGAUGAUGCCUGAAGAGCCUUGGUUUUUUG [C15A G47U C80U C86A] | -3.28
GACCAAUCUGCCCUCAGAGCUCGAGAACAUCUUCGGAUGCAGAGGAGGCAGGCUUCGGUGGCGCGAUAGCGCCAGCGUCCUCAACCUCCAAUGCAUCCCACCACAUGAUGAUGCCUGAAGAGUCGAGGUUUUUUG [A75G C123U U125G U126A] | 0.149
GACCAAUCUGCCCUCAGAGCUCGAGAACAUCUUCGGAUGCAGAGGAGGCAGGCUUCGGUGGCUCGAUAGCGCCAACGUCCUCAACCUCCAAUGCAUCCCACCAUAUGAUGAUGCCUGAAGAGCCUUGGUUUUUUG [G63U C104U] | -1.36
GACCAAUCUGCGCUCAGAGCUCGAGAACAUCUUCGGAUGCAGAGGAGGCAGGCUUCGGUGGCGCGAUAGCGCCAACGUCCUCAACCUCCAAUGCAUCCCAGGACAUGAUCAUGCCUGAAGAGCCUUGGUUUUUUG [C12G C101G C102G G110C] | -5.71
GACUAAUCUGCCCUCAGAGCUCGAGAACAUCUUCGGAUGCAGAGGAGUCAGGCUUGGGUGGCGCGAUAGCGCCAACGACCUCAACCUCCAAUGCAUCUCACCACAUGAUGAGGCCUGAAGAGCCUUGGUUUUUUA [C4U G48U C56G U78A C98U U112G G135A] | -4.14
GACCAAUCUGCCCUCAGAGCUCGAGAACAUCUUCGGAUGCUGAGGAGGCAGGCUUCGGUGGCGCGAUAGGGCCAACGUCCUCAACCUCCAAUGCAUCCCACCACAUGAUGAUGCCUGAAUAGCCUUGGUUUUUUG [A41U C70G G120U] | -6.06
GACCAAUCUGCCCUCAGAGCUCGAGAACAUCUUCGGAUGCAGAGGAGGCAGGCUUCGGUGGCGCGAUAUCGCCAACGUCCUCAACCUCCAAUGCAUCCCACCACAUGAUGAUGCCUGAAGAGCCUUGCUUUUUUG [G69U G128C] | -1.01
GACCAAUCUGCCCUCAGAUCUCGAGAACAUCUUCGGAUGCAGGGGAUGCAGGCUUCGGUGGCGCGAUAGCGCCAAGGUCCUCAACCUCCAAUGCAUCCCACCACAUGAUGAUACCUGACGAGCCUUGGUUAUUUG [G19U A43G G47U C76G G113A A119C U131A] | -4.34
GACCAAUCUGCCCUCAGAGCUCGAGAACAUCUUCGGAUGCAGAGGAGGCAGGCUUCGGUGGCGCGAUAGCGCCAACGUCCUCAACCUCCAAUGCGUCCCAACACAUGAUGCUGCCUGAAGAGCCUUGGUUUUUUG [A95G C101A A111C] | -1.91
GACCAAUCUGCCCUCAGAGCUCGAGAACGUCUUCGGAUGCAGAGGAGGCAGGCUUCGGUGGUGCGAUAGCGCCAACGUCCUCAACCUCCAAUGCAUCCCACCACAUGAUGAUGCCUGUACAGCCUUGGUUUUUUG [A29G C62U A118U G120C] | -1.4
GACCCAUCUGCCCUCCGAGCUCGAGAACAUCUUCGGAUGCAGACGAGGCAGGCUUCGGUGGCGCGAUAGCGCCAACGUCCUCAACCUCCAAUGCAUCCCACCACAUGAUGAUGCCUGAAGAGCCUUGGUUUUUUG [A5C A16C G44C] | -4.17
GACCAAUCUGCCCUCAGAGCUCGAGAACAUCUUCGGAUGCAGAAGAGGCAAGCUUCGGUGGCGCGAUAGCGCCAACGUCUUCAACAUCCAAUGCAUCCCACCACAUGAUGAUGCCUGAAGAGCGUUGGUUUUUUG [G44A G51A C80U C86A C124G] | -0.462
GACCAAUCUGCCCUCAGAGCUCGAGUACAUCUUCGGAUGCAGAGGCGGCAGGCUUAGGUGGCGCGAUAGCGCCAACGUCCUCAACCUCCAAUGCAUCCCACCACAUGAUGAUGCCUGAAUAGCCUUGGUUUUUUG [A26U A46C C56A G120U] | -4.53
GACCAAUCUGCCCUCAAAGCUCGAGAACAUCUUCGGAUGCAGAGGAGGCAGGCUUCGGUGGCGCGAUAGCGCCAACGUCCUCAACCUCCAAUGCAUCCCACCACAUGAUGAUGCCUGAAGAGCCUUGGUUUAUUG [G17A U132A] | -2.35
